Reference: patent US20240417436A1 (BRIGHT PEAK THERAPEUTICS, published 2024)
Bridges are numbered along the chain shown (N, C = ends). Primed or numbered codes have the meaning given here. [ ]: non-standard residue; d: D form. cleavable peptide, 4x polyethylene glycol = not defined here; Ygp = O-(8x polyethylene glycol-amino)-tyrosine; Yn3 = O-(9x polyethylene glycol-azido)-tyrosine; 4x polyethylene glycol = not defined here; cleavable moiety, PEG9 = not defined here; PEG4′ = 4x polyethylene glycol; PEG9″ = 9x polyethylene glycol; hSer = N[C@@H](CCO)C(=O)O; Nle = CCCC[C@H](N)C(=O)O

T1: IL-2 receptor βγ complex on pan T cells (human, UniProt P14784 27-551; P31785 23-369)
T1 sequence (looked up) 1: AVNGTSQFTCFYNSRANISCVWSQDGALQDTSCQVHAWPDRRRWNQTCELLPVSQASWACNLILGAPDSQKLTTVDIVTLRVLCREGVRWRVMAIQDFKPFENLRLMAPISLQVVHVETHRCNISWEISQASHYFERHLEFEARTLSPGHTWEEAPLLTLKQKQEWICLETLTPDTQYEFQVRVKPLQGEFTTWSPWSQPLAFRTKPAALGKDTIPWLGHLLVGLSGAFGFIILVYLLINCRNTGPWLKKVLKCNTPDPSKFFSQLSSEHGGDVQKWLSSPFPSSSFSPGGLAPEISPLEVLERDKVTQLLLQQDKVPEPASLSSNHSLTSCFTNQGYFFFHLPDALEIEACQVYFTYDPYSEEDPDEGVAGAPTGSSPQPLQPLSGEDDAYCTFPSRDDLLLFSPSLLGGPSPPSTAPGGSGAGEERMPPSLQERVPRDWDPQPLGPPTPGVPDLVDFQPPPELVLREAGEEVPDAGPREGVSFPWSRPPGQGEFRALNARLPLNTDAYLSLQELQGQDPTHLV
T1 sequence (looked up) 2: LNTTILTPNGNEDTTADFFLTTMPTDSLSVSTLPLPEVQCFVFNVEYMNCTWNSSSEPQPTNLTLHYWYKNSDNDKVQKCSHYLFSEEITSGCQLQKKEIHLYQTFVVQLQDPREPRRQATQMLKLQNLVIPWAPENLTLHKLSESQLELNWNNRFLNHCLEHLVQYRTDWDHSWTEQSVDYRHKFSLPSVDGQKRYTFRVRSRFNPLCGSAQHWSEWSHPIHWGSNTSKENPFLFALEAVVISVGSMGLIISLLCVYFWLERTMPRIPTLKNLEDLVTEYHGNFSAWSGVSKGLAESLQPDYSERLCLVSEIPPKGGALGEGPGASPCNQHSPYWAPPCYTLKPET

B1: CMP-163, MMP2 cleaved (ligand)
chain: APTSSSTKKTQLQLEHLLLDLQKILNGINNYKNPKLTR[Nle]L[hSer][Yn3]KF[Ygp][Nle]PKKATELKHLQCLEEELKPLEEVL[hSer]LAQSKNFHLRPRDLISNINVIVLELKGSETTF[hSer]CEYADETATIVEFLNRWITFSQSIISTLT
modifications: not fully specified (residue 23, N-terminus); ends and bridges not checked; also: macrocycle (Lys23 side chain - cleavable peptide - PEG4 - glutaryl - Ala1) cut by MMP2, cut site not given here
B2: CMP-156 (ligand)
chain: APTSSSTKKTQLQLEHLLEDLQ[Nle]ILNGINNYKNPKLTR[Nle]L[hSer][Yn3]KF[Ygp][Nle]PKKATELKHLQCLEEELKPLEEVL[hSer]LAQSKNFHLRPRDLISNINVIVLELKGSETTF[hSer]CEYADETATIVEFLNRWITFSQSIISTLT
modifications: linker N-19 via cleavable peptide, 4x polyethylene glycol; not fully specified; reading uncertain
B3: CMP-156, MMP2 cleaved (ligand)
chain: APTSSSTKKTQLQLEHLLEDLQ[Nle]ILNGINNYKNPKLTR[Nle]L[hSer][Yn3]KF[Ygp][Nle]PKKATELKHLQCLEEELKPLEEVL[hSer]LAQSKNFHLRPRDLISNINVIVLELKGSETTF[hSer]CEYADETATIVEFLNRWITFSQSIISTLT
modifications: also: MMP2-cleaved cleavable peptide, macrocycle opened, cut site not given here, remnants on Glu19 and N-terminus unspecified
B4: CMP-157 (ligand)
chain: PLGLAGAPTSSSTKKTQLQLEHLLEDLQ[Nle]ILNGINNYKNPKLTR[Nle]L[hSer][Yn3]KF[Ygp][Nle]PKKATELKHLQCLEEELKPLEEVL[hSer]LAQSKNFHLRPRDLISNINVIVLELKGSETTF[hSer]CEYADETATIVEFLNRWITFSQSIISTLT
modifications: linker N-25 via 4x polyethylene glycol; reading uncertain
B5: CMP-157, MMP2 cleaved (ligand)
chain: PLGLAGAPTSSSTKKTQLQLEHLLEDLQ[Nle]ILNGINNYKNPKLTR[Nle]L[hSer][Yn3]KF[Ygp][Nle]PKKATELKHLQCLEEELKPLEEVL[hSer]LAQSKNFHLRPRDLISNINVIVLELKGSETTF[hSer]CEYADETATIVEFLNRWITFSQSIISTLT
modifications: also: macrocycle (4x PEG linker between residue 1 and Glu25 side chain) opened by MMP2 cleavage within PLGLAG, cut site not given here
B6: CMP-158 (ligand)
chain: APTSSSTKKTQLQLEHLLLDLE[Nle]ILNGINNYKNPKLTR[Nle]L[hSer][Yn3]KF[Ygp][Nle]PKKATELKHLQCLEEELKPLEEVL[hSer]LAQSKNFHLRPRDLISNINVIVLELKGSETTF[hSer]CEYADETATIVEFLNRWITFSQSIISTLT
modifications: linker N-22 via cleavable peptide, 4x polyethylene glycol; not fully specified; reading uncertain
B7: CMP-158, MMP2 cleaved (ligand)
chain: APTSSSTKKTQLQLEHLLLDLE[Nle]ILNGINNYKNPKLTR[Nle]L[hSer][Yn3]KF[Ygp][Nle]PKKATELKHLQCLEEELKPLEEVL[hSer]LAQSKNFHLRPRDLISNINVIVLELKGSETTF[hSer]CEYADETATIVEFLNRWITFSQSIISTLT
modifications: also: MMP2-cleaved cleavable peptide, macrocycle opened, cut site not given here, remnants on Glu22 and N-terminus unspecified
B8: CMP-159 (ligand)
chain: PLGLAGAPTSSSTKKTQLQLEHLLLDLE[Nle]ILNGINNYKNPKLTR[Nle]L[hSer][Yn3]KF[Ygp][Nle]PKKATELKHLQCLEEELKPLEEVL[hSer]LAQSKNFHLRPRDLISNINVIVLELKGSETTF[hSer]CEYADETATIVEFLNRWITFSQSIISTLT
modifications: linker N-28 via PEG4′; ends not checked
B9: CMP-159, MMP2 cleaved (ligand)
chain: PLGLAGAPTSSSTKKTQLQLEHLLLDLE[Nle]ILNGINNYKNPKLTR[Nle]L[hSer][Yn3]KF[Ygp][Nle]PKKATELKHLQCLEEELKPLEEVL[hSer]LAQSKNFHLRPRDLISNINVIVLELKGSETTF[hSer]CEYADETATIVEFLNRWITFSQSIISTLT
modifications: not fully specified (bridges); ends and bridges not checked; also: cleaved by MMP2 (macrocycle opened), cut site not given here
B10: CMP-160 (ligand)
chain: APTSSSTKKTQLQLEHLLLDLQ[Nle]ILEGINNYKNPKLTR[Nle]L[hSer][Yn3]KF[Ygp][Nle]PKKATELKHLQCLEEELKPLEEVL[hSer]LAQSKNFHLRPRDLISNINVIVLELKGSETTF[hSer]CEYADETATIVEFLNRWITFSQSIISTLT
modifications: linker N-26 via cleavable moiety, PEG9; ends not checked; also: cleavable moiety sequence not given here
B11: CMP-160, MMP2 cleaved (ligand)
chain: APTSSSTKKTQLQLEHLLLDLQ[Nle]ILEGINNYKNPKLTR[Nle]L[hSer][Yn3]KF[Ygp][Nle]PKKATELKHLQCLEEELKPLEEVL[hSer]LAQSKNFHLRPRDLISNINVIVLELKGSETTF[hSer]CEYADETATIVEFLNRWITFSQSIISTLT
modifications: ends and bridges not checked; also: cleavable moiety between Glu26 side chain and N-terminus (via PEG9) cut by MMP2, macrocycle opened, cut site not given here
B12: CMP-161 (ligand)
chain: PLGLAGAPTSSSTKKTQLQLEHLLLDLQ[Nle]ILEGINNYKNPKLTR[Nle]L[hSer][Yn3]KF[Ygp][Nle]PKKATELKHLQCLEEELKPLEEVL[hSer]LAQSKNFHLRPRDLISNINVIVLELKGSETTF[hSer]CEYADETATIVEFLNRWITFSQSIISTLT
modifications: linker N-32 via PEG9″; ends not checked
B13: CMP-161, MMP2 cleaved (ligand)
chain: PLGLAGAPTSSSTKKTQLQLEHLLLDLQ[Nle]ILEGINNYKNPKLTR[Nle]L[hSer][Yn3]KF[Ygp][Nle]PKKATELKHLQCLEEELKPLEEVL[hSer]LAQSKNFHLRPRDLISNINVIVLELKGSETTF[hSer]CEYADETATIVEFLNRWITFSQSIISTLT
modifications: not fully specified; ends and bridges not checked; also: before cut, residues 1..32 linked via PEG9 (Glu32 side chain)
B14: CMP-162 (ligand)
chain: APTSSSTKKTQLQLEHLLLDLQKILNGINNYKNPKLTR[Nle]L[hSer][Yn3]KF[Ygp][Nle]PKKATELKHLQCLEEELKPLEEVL[hSer]LAQSKNFHLRPRDLISNINVIVLELKGSETTF[hSer]CEYADETATIVEFLNRWITFSQSIISTLT
modifications: not fully specified (residue 23); ends and bridges not checked; also: cleavable moiety on Lys23 side chain, structure not given here
B15: CMP-162, MMP2 cleaved (ligand)
chain: APTSSSTKKTQLQLEHLLLDLQKILNGINNYKNPKLTR[Nle]L[hSer][Yn3]KF[Ygp][Nle]PKKATELKHLQCLEEELKPLEEVL[hSer]LAQSKNFHLRPRDLISNINVIVLELKGSETTF[hSer]CEYADETATIVEFLNRWITFSQSIISTLT
modifications: not fully specified (residue 23); ends and bridges not checked; also: cleavable peptide on Lys23 cut by MMP2, remnant stays attached, cut site not given here

These binders were tested against T1, IL-2 receptor βγ complex on pan T cells (assay: cell-based or functional assay).
In the case of B1, the “Average EC50, pSTAT5 assay in pan T cells, MMP2 cleaved molecule” value (“Average EC50 … MMP2 cleaved molecule” for short) is reported as 0.76 nM.

Biological target: T1, IL-2 receptor βγ complex on pan T cells
Assay: cell-based or functional assay
Remark: another data set of the same source
B2 was tested, and the “Average EC50, pSTAT5 assay in pan T cells, intact molecule” value (“Average EC50 … intact molecule” below) was 86 nM. With B3 the “Average EC50 … MMP2 cleaved molecule” value was 21.3 nM. B4 was tested, and the “Average EC50 … intact molecule” value was 54.5 nM. In the case of B5, the “Average EC50 … MMP2 cleaved molecule” value is reported as 10 nM. B6 was tested, and the “Average EC50 … intact molecule” value was 36.6 nM. B7 was tested, and the “Average EC50 … MMP2 cleaved molecule” value was 1.95 nM. In the case of B8, the “Average EC50 … intact molecule” value is reported as 35.5 nM. B9 was tested, and the “Average EC50 … MMP2 cleaved molecule” value was 2.27 nM. In the case of B10, the “Average EC50 … intact molecule” value is reported as 27.8 nM. In the case of B11, the “Average EC50 … MMP2 cleaved molecule” value is reported as 2.21 nM. B12 was tested, and the “Average EC50 … intact molecule” value was 29.4 nM. With B13 the “Average EC50 … MMP2 cleaved molecule” value was 3.59 nM. In the case of B14, the “Average EC50 … intact molecule” value is reported as 2.79 nM. In the case of B15, the “Average EC50 … MMP2 cleaved molecule” value is reported as 0.758 nM.
